Data on 13 molecules can be found in patent US12006519B2, “Polymerase mutants and use with 3′-OH unblocked reversible terminators” (Agilent Technologies, Inc., priority 2021, dated 2024).

Substitutions are numbered along the chain they refer to. Names may count otherwise.

Format in all cases: biochemical
The test system of one assay is Lightning Terminators. Description: Sequencing-by-synthesis with Lightning Terminators (87 cycles). Also noted: ARL (87 cycles) / Lead + Lag / Leading / Lagging: unit not given here. The procedure:
(§1) This section generally describes how the present mutant polymerases were used for sequencing-by-synthesis, and how their performance in sequencing was measured. Sequencing was performed on a breadboard instrument, essentially as described in Hertzog D, et al., “A high-performance, low-cost approach to next-generation sequencing”, BioOptics World. 2011 Issue November/December 2011.
In this example, mutations were introduced into the DNA polymerase of SEQ ID NO: 12 (Therminator) in an attempt to improve its capability in sequencing with 3′-OH unblocked terminators. Such mutations to Thermococcus sp. 9° N DNA polymerase are disclosed in U.S. Pat. Nos. 9,273,352; 9,677,059; 9,765,309; U.S. Pat. App. Publication No. 20160032377. The following table summarizes sequencing metrics with Lightning Terminators.
As used in this example and those that follow, “Lead+Lag” refers to dephasing errors in Sequencing by Synthesis technology caused by either reading the next base signal (Lead) or reading the previous base signal (Lag) relative to current base signals. Such errors may arise because of imperfect incoporation of reversible terminators by the polymerase.
In this example, mutant polymerases were created by introducing certain mutations (D141A/E143A/A485L) which are present in Therminator. The three mutations were introduced at the equivalent positions in JDF3 (Thermococcus sp. JDF3) and Pfu (Pyrococcus furisosus) DNA polymerases. The new mutant polymerases were then evaluated for their performance in sequencing with Lightning Terminators, as described above.

The test system of another assay is Human DNA library. Description: Sequencing with Lightning Terminators, Human DNA library (120 cycles). The procedure:
as §1
(§2) In this example, a variety of mutations were introduced into Pfu10 by multi-site mutagenesis or into Pfu A486L/Y546H by domain substitutions to explore an acceptable degree of reduced identity and identify other mutant Pfu polymerases containing L486, F494, H546, and W477. […] Pfu10 and Pfu10-N12 were evaluated for performance in sequencing with Lightning Terminators, as described above.

The test system of a further assay is E. coli DNA library. Description: Sequencing with Lightning Terminators, E. coli DNA library (120 cycles). How it is done: as §1, §2
Where [1] appears, read: Therminator mutants, same unit concentrations (0.08 U/ul in cycle 1 and 0.008 U/ul in cycles 2-n).
[2] abbreviates: alternative polymerases (D141A/E143A), same protein concentrations (0.02 ug/uL in cycle 1 and 0.002 ug/uL in cycles 2-n).

B1: K476W: Therminator with mutation K476W (9° N DNA pol numbering) (protein, UniProt Q56366 1-775, looked up, variant D141A E143A A485L K476W)
DNA polymerase: MILDTDYITENGKPVIRVFKKENGEFKIEYDRTFEPYFYALLKDDSAIEDVKKVTAKRHGTVVKVKRAEKVQKKFLGRPIEVWKLYFNHPQDVPAIRDRIRAHPAVVDIYEYDIPFAKRYLIDKGLIPMEGDEELTMLAFAIATLYHEGEEFGTGPILMISYADGSEARVITWKKIDLPYVDVVSTEKEMIKRFLRVVREKDPDVLITYNGDNFDFAYLKKRCEELGIKFTLGRDGSEPKIQRMGDRFAVEVKGRIHFDLYPVIRRTINLPTYTLEAVYEAVFGKPKEKVYAEEIAQAWESGEGLERVARYSMEDAKVTYELGREFFPMEAQLSRLIGQSLWDVSRSSTGNLVEWFLLRKAYKRNELAPNKPDERELARRRGGYAGGYVKEPERGLWDNIVYLDFRSLYPSIIITHNVSPDTLNREGCKEYDVAPEVGHKFCKDFPGFIPSLLGDLLEERQKIKRKMKATVDPLEWKLLDYRQRLIKILANSFYGYYGYAKARWYCKECAESVTAWGREYIEMVIRELEEKFGFKVLYADTDGLHATIPGADAETVKKKAKEFLKYINPKLPGLLELEYEGFYVRGFFVTKKKYAVIDEEGKITTRGLEIVRRDWSEIAKETQARVLEAILKHGDVEEAVRIVKEVTEKLSKYEVPPEKLVIHEQITRDLRDYKATGPHVAVAKRLAARGVKIRPGTVISYIVLKGSGRIGDRAIPADEFDPTKHRYDAEYYIENQVLPAVERILKAFGYRKEDLRYQKTKQVGLGAWLKVKGKK
modifications: Therminator
Consider B1, for which, in the assay with Lightning Terminators (setting [1]), the “% reads >85 bp” value came to 31.8%, the “ARL (87 cycles)” value is 70.2 and the “Lead + Lag” value turned out to be 1.4.

B2: Therminator: DNA polymerase of SEQ ID NO:12, derivative of Thermococcus sp. 9° N-7 DNA polymerase (D141A/E143A/A485L), New England Biolabs (protein)
chain: B1 DNA polymerase with W476K
Turning to B2, in the assay on Lightning Terminators (Example 3), the “% reads >85 bp” value came to 49.6%, the FracQ30 stood at 0.58, the Lagging was determined as 0.61 and the Leading is recorded as 0.70. Besides, the “ARL (87 cycles)” value in the assay with Lightning Terminators (Example 3, Therminator 110 runs, Pfu10 12 runs) stood at 76.0. In the assay on Lightning Terminators (setting [1]), the “% reads >85 bp” value turned out to be 35.4%, the “ARL (87 cycles)” value stood at 72.3 and the “Lead + Lag” value came to 1.6. In the assay on Lightning Terminators (setting [2]), the “% reads >85” value is on record as 49.6%, the “ARL (87 cycles)” value is 76.0 and the “Lead + Lag” value was determined as 1.3.

B3: T144G: Therminator with mutation T144G (9° N DNA pol numbering) (protein, UniProt Q56366 1-775, looked up, variant D141A E143A A485L T144G)
DNA polymerase: B1 DNA polymerase with T144G, W476K
modifications: Therminator
In the case of B3, in the assay with Lightning Terminators (setting [1]), the “% reads >85 bp” value worked out at 31.8%, the “ARL (87 cycles)” value was 70.5 and the “Lead + Lag” value stood at 1.4.

B4: T590I: Therminator with mutation T590I (9° N DNA pol numbering) (protein, UniProt Q56366 1-775, looked up, variant D141A E143A A485L T590I)
DNA polymerase: B1 DNA polymerase with W476K, T590I
modifications: Therminator
Regarding B4, in the assay with Lightning Terminators (setting [1]), the “% reads >85 bp” value was determined as 32.2%, the “ARL (87 cycles)” value amounted to 68.1 and the “Lead + Lag” value is 1.3.

B5: R743A: Therminator with mutation R743A (9° N DNA pol numbering) (protein, UniProt Q56366 1-775, looked up, variant D141A E143A A485L R743A)
DNA polymerase: B1 DNA polymerase with W476K, R743A
For the molecule B5, in the assay with Lightning Terminators (setting [1]), the “% reads >85 bp” value came to 8.6%, the “ARL (87 cycles)” value was determined as 55.0 and the “Lead + Lag” value worked out at 2.4.

B6: L478S: Therminator with mutation L478S (9° N DNA pol numbering) (protein, UniProt Q56366 1-775, looked up, variant D141A E143A A485L L478S)
DNA polymerase: B1 DNA polymerase with W476K, L478S
modifications: Therminator
As for B6, in the assay on Lightning Terminators (setting [1]), the “% reads >85 bp” value turned out to be 19.6%, the “ARL (87 cycles)” value was determined as 65.8 and the “Lead + Lag” value was determined as 1.6.

B7: T514S: Therminator with mutation T514S (9° N DNA pol numbering) (protein, UniProt Q56366 1-775, looked up, variant D141A E143A A485L T514S)
DNA polymerase: B1 DNA polymerase with W476K, T514S
modifications: Therminator
Take B7: in the assay on Lightning Terminators (setting [1]), the “% reads >85 bp” value is reported as 38.3%, the “ARL (87 cycles)” value is 72.0 and the “Lead + Lag” value was found to be 1.1.

B8: A639F: Therminator with mutation A639F (9° N DNA pol numbering) (protein, UniProt Q56366 1-775, looked up, variant D141A E143A A485L A639F)
DNA polymerase: B1 DNA polymerase with W476K, A639F
modifications: Therminator
With B8, in the assay on Lightning Terminators (setting [1]), the “% reads >85 bp” value worked out at 6.9%, the “ARL (87 cycles)” value is reported as 58.5 and the “Lead + Lag” value is listed as 2.3.

B9: G153D: Therminator with mutation G153D (9° N DNA pol numbering) (protein, UniProt Q56366 1-775, looked up, variant D141A E143A A485L G153D)
DNA polymerase: B1 DNA polymerase with G153D, W476K
modifications: Therminator
On to B9, for which, in the assay on Lightning Terminators (setting [1]), the “% reads >85 bp” value is reported as 21.5%, the “ARL (87 cycles)” value is listed as 66.7 and the “Lead + Lag” value is 1.8.

B10: D718N: Therminator with mutation D718N (9° N DNA pol numbering) (protein, UniProt Q56366 1-775, looked up, variant D141A E143A A485L D718N)
DNA polymerase: B1 DNA polymerase with W476K, D718N
B10: in the assay with Lightning Terminators (setting [1]), the “% reads >85 bp” value turned out to be 17.9%, the “ARL (87 cycles)” value was 65.6 and the “Lead + Lag” value was found to be 1.8.

B11: I521L: Therminator with mutation I521L (9° N DNA pol numbering) (protein, UniProt Q56366 1-775, looked up, variant D141A E143A A485L I521L)
DNA polymerase: B1 DNA polymerase with W476K, I521L
modifications: Therminator
As for B11, in the assay on Lightning Terminators (setting [1]), the “% reads >85 bp” value is 2.8%, the “ARL (87 cycles)” value came to 53.9 and the “Lead + Lag” value is 2.8.

B12: K477M: Therminator with mutation K477M (9° N DNA pol numbering) (protein, UniProt Q56366 1-775, looked up, variant D141A E143A A485L K477M)
DNA polymerase: B1 DNA polymerase with W476K, K477M
modifications: Therminator
In the case of B12, in the assay on Lightning Terminators (setting [1]), the “% reads >85 bp” value was 27.7%, the “ARL (87 cycles)” value is 68.8 and the “Lead + Lag” value was found to be 1.6.

B13: Pfu10-N12: Pfu10 variant with 15 conservative mutations plus M129A, SEQ ID NO:3 (protein)
chain: MILDVDYITEEGKPIIRLFKKENGKFRIEHDRTFRPYIYALLRDDSKIEEIKKITGERHGKIVRIVDVEKVEKKFLGKPVTVWRLYLEHPQDVPTIREKVKEHPAVIDIFEYDIPFAKRYLIDKGLVPAEGEEELKILAFAIATLYHEGEEFGKGPIIMISYADENEAKVITWKNIDLPYVEVVSSEREMIKRFVKIIKEKDPDIIVTYNGDSFDFPYLAKRAEKLGVKLTIGRDGSEPKMQRIGDMTAVEVKGRIHFDLYHVITRTINLPTYTLEAVYEAIFGKPKEKVYADEIAKAWESGENLERVAKYSMEDAKATYELGKEFLPMEIQLSRLVGQPLWDVSRSSTGNLVEWFLLRKAYERNEVAPNKPSEEEYQRRLRESYTGGFVKEPEKGLWENIVYLDFRALYPSIIITHNVSPDTLNLEGCKNYDIAPQVGHKFCKDIPGFIPSLLGHLLEERQKIKTKMKETQDPIEWILLDYRQKLIKLLANSFYGYYGYARARWYCRECAESVTAWGRKYIELTWKELEEKFGFKVLYIDTDGLHATIPGGESEEIKKKALEFVKYINSKLPGLLELEYEGFYKRGFFVTKKRYAVIDEEGKVITRGLEIVRRDWSEIAKETQARVLETILKHGDVEEAVRIVKEVIQKLANYEIPPEKLAIYEQITRPLHEYKAIGPHVAVAKKLAAKGVKIKPGMVIGYIVLRGDGPISNRAILAEEYDPKKHKYDAEYYIENQVLPAVLRILEGFGYRKEDLRYQKTRQVGLTSWLNIKKS
modifications: Mutant of Pyrococcus furiosus Polymerase
Consider B13, for which, in the assay with Human DNA library (Human DNA library), the “% reads >85” value was 93.3%, the “ARL (120 cycles)” value is recorded as 111.6, the FracQ30 turned out to be 0.68 and the “Lead + Lag” value was 1.0. The “Sequencing performance with Lightning Terminators (in words)” value in the assay on Human DNA library (Human and E. coli libraries, compared with Pfu10) was “performs comparably if not slightly better than Pfu10”. For the same molecule, in the assay with E. coli DNA library, the “% reads >85” value is recorded as 82.6%, the “ARL (120 cycles)” value stood at 93.8, the FracQ30 is given as 0.65 and the “Lead + Lag” value stood at 0.9.
